Experimental data from the Human Domainome abundance scans (Beltran et al. 2025).

B1: Cell division cycle and apoptosis regulator protein 1, residues 625 to 674; numbered along this chain, Q8IX12 (parent)
chain: ISTPTHWSKLDPKTMKVNDLRKELESRALSSKGLKSQLIARLTKQLKVEE

Variants of: B1
Experiment: abundance fitness (aPCA) (normalised: wild type 0, dead -1); higher = more abundant; growth selection in yeast, the domain comes from the species named
Conditions: Homo sapiens

Abundance fitness, by site and new letter:
Q45: I -0.187 | V -0.211 | R 0.01 | D -0.596 | G -0.364 | L -0.46 | F -0.237 | S -0.144 | T -0.093 | H -0.284 | A -0.045 | W -0.244 | K -0.015 | C -0.042 | E -0.118 | P -0.872 | M -0.216
T43: Y -0.281 | W -0.202 | K 0.148 | H -0.105 | Q -0.068 | S -0.048 | R 0.103 | I -0.05 | A -0.01 | P -0.721 | C -0.071 | N -0.021 | E -0.117 | M -0.094 | D -0.097 | V -0.057 | L -0.043
Q37: W -0.459 | Y -0.274
L38: P -0.634 | H -0.628 | N -0.666 | A -0.534 | Q -0.366 | Y -0.832 | G -0.603 | M -0.049 | E -0.423 | K -0.324 | F -0.866 | T -0.63 | D -0.332 | C -0.477 | R -0.583 | S -0.592
K44: M -0.355 | N -0.091 | I -0.296 | D -0.167 | E -0.151 | W -0.338 | V -0.31 | S -0.19 | A -0.161 | T -0.128 | H -0.246 | L -0.289 | P -0.652 | C -0.366 | Y -0.229
K47: G -0.128 | M -0.266 | E -0.23 | Q -0.196 | P -0.806 | D -0.204 | L -0.151 | N -0.106 | I -0.179 | C -0.265 | R -0.083 | H -0.212 | F -0.489 | A -0.146
L46: P -0.822 | K -0.347 | Y -0.617 | Q -0.335 | I -0.146 | H -0.827 | F -0.471 | R -0.554 | A -0.549 | D -0.705 | G -0.787 | N -0.744 | V -0.258 | W -0.805 | S -0.676 | T -0.467 | M -0.023
I39: W -0.573 | R -0.013 | S -0.205 | A -0.145 | K 0.016 | N -0.26 | P -0.366 | E -0.102 | V 0.022 | M -0.1 | G -0.286 | Q -0.102 | D -0.266 | F -0.518 | T -0.049 | C -0.059 | Y -0.279 | L -0.183
A40: G 0.03 | P -0.12 | T -0.108 | R 0.019 | S -0.028 | C -0.07 | D -0.05 | M 0.034 | N -0.066 | I -0.186 | L -0.095 | K -0.349 | Y 0.219 | H 0.1 | F 0.032
L42: Q -0.505 | N -0.515 | I -0.231 | S -0.563 | K -0.677 | R -0.733 | D -0.493 | F -0.56 | A -0.662 | Y -0.845 | W -0.929 | G -0.516 | V -0.634 | E -0.547 | H -0.509 | P -0.472 | M -0.206 | T -0.585 | C -0.795
R41: F -0.814 | G -0.556 | E -0.212 | P -0.728 | D -0.434 | T -0.237 | K -0.202 | Q -0.466 | S -0.271 | N -0.235 | V -0.417 | L -0.331 | W -0.877 | I -0.416 | A -0.377 | M -0.356 | H -0.374
